Results as given in US20080108569A1, “Compositions and Methods for Treating Diseases Associated With Phlpp” (The Regents of the University of California, priority 2005, published 2008).

Biological target: endogenous Akt (UniProt P31749)
Assay: cell-based or functional assay

Sequence of endogenous Akt (P31749 whole entry): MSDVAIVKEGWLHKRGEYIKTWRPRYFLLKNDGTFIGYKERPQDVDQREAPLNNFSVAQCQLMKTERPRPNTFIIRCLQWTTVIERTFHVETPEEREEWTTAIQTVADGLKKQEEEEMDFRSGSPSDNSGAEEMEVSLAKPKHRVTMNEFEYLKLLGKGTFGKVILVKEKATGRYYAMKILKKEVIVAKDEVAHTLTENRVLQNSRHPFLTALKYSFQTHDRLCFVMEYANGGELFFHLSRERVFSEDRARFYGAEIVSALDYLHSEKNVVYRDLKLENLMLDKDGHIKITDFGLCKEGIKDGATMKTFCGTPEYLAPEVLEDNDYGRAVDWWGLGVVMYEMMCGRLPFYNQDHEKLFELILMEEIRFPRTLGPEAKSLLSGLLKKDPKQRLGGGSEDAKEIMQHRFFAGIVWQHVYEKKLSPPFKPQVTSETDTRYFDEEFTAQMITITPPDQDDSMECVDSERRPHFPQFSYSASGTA

increase in Akt phosphorylation at Ser 473 on siRNA knock down of PHLPP2 in 293T cells [fold] | increase in Ser473 phosphorylation on siRNA knock down of PHLPP2 in H157 cells [fold] | Substance
2 |  | endogenous PHLPP2 (from UniProt Q6ZVD8 1-1323)
 | 4 | endogenous PHLPP2 (from UniProt Q6ZVD8 1-1323) (enzyme)
